Molecular target: bovine serum albumin, P02769
Sequence (P02769 25-607): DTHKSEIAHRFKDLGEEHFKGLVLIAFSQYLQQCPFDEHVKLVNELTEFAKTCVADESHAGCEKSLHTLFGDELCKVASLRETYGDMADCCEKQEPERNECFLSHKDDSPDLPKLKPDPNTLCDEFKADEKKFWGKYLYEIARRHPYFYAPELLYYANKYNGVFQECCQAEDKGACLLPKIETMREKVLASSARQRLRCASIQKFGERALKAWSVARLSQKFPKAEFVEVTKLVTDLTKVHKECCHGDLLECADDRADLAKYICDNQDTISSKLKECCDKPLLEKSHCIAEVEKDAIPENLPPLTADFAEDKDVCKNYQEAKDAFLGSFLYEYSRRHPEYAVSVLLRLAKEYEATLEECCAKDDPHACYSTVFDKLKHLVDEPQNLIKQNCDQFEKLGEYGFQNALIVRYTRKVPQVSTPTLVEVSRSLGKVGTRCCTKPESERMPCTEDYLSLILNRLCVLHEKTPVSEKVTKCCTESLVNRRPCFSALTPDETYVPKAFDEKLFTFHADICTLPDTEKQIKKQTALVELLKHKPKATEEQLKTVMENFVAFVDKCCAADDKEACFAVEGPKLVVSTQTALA

B1: MPO purified from human PMNs (protein)
chain 1: not shown
chain 2: VNCETSCVQQPPCFPLKIPPNDPRIKNQADCIPFFRSCPACPGSNITIRNQINALTSFVDASMVYGSEEPLARNLRNMSNQLGLLAVNQRFQDNGRALLPFDNLHDDPCLLTNRSARIPCFLAGDTRSSEMPELTSMHTLLLREHNRLATELKSLNPRWDGERLYQEARKIVGAMVQIITYRDYLPLVLGPTAMRKYLPTYRSYNDSVDPRIANVFTNAFRYGHTLIQPFMFRLDNRYQPMEPNPRVPLSRVFFASWRVVLEGGIDPILRGLMATPAKLNRQNQIAVDEIRERLFEQVMRIGLDLPALNMQRSRDHGLPGYNAWRRFCGLPQPETVGQLGTVLRNLKLARKLMEQYGTPNNIDIWMGGVSEPLKRKGRVGPLLACIIGTQFRKLRDGDRFWWENEGVFSMQQRQALAQISLPRIICDNTGITTVSKNNIFMSNSYPRDFVNCSTLPALNLASWREAS
endocytosis of MPO in BLMVEC (confocal microscopy): in the presence of albumin, MPO staining was markedly co-localized with albumin-containing vesicles
transendothelial 125I-MPO permeability (BLMVEC on Transwell filters): increased more than 2-fold in the presence of albumin, as compared to γ-globulin

Source: patent publication US20070077239
